The values below come from the DeepSol protein solubility set.

The nature of the series: soluble on expression in E. coli; label from the status in PepcDB or PDB records.
Consider “MANRMILNETAWFGRGAVDALTDEVTRRGYHKALIVTDKTLVQCGVVDKVTSRMDAAGLAWEIYAGVIPNPTISVVQEGLKVFTQSGADYLIAIGGGSPQDTCKAIGIISNNPEFADVRSLEGLSPTRKPSVPIMAIPTTAGTAAEVTINYVITDEEKRRKFVCVDPHDIPQAAFIDADMMDGMPPALKAATGVDALTHAIEGYITRAAWALTDALHIKAIEIIAGALRGAVAGEKEAGEAMALGQYVAGMGFSNVGLGLVHGMAHPLGAFYNTPHGVANAILLPHVMRFNAGSTNEKFRDIARAMGVKVEGLSLEEARNAAVEAVFTLNRDVGIPLHLRDVGVRKEDIPALAQAAFDDVCTGGNPREASLADIVELYHTAW”, for which the “soluble on expression in E. coli” value is “not soluble”.
For “MAPAPEVVSWAEAVEQDNAPHIQEGADGTRTETAFTEVDGVRWKVVTQFKVINKRVPKVVADRKKWVKFGSCKGEPAGPQVATTYVAEEVDMQFTRNRAGEQILDVQEDKQTAKTTSREHCRHCKGNDHWSTHCPYKVMYQLDEEADADKDTEKDRMAMGMRPDGRQIDRNRSDENTCRVTNLPQEMNEDELRDLFGKIGRVIRIFIARDKVTGLPKGFAFVTFESRDDAARAIAELNDIRMYHMVLKVEWTRPSN” the value was “not soluble”; for “MAPTTVIADNNCNEESSNSFEMEIEAESAILEQIQNKMAKNLESAAYVPPTEEEQKAIDAKSVFIGNVDFNSTIEEVEEHFKGCGHIVRTTIPKDKFTKKQKNFAYIEFDDSSSIENALVMNGSLFRSRPIVVTAKRTNIPGMGHGVRGSSRGTFGRGRGAARGAPGRQQTVVVKYVYVNGPNRGGRGGRGRRFNPY”, “soluble”; for “MAQDIKNEEVEEVQEEEVVKTAEETTPEKSELDLANERADEFENKYLRAHAEMQNIQRRANEERQNLQRYRSQDLAKAILPSLDNLERALAVEGLTDDVKKGLGMVQESLIHALKE”, “not soluble”.
As for “MAQFIDRRLNGKKKSTVNRQRFIRRHKDQIKRAVSDAVNQRSVTNTESGESISIPKGDISEPVFHQGQGGIRERVLPGNDQFIKGDKIERPQGGNGGGGAGDGDASADGEGQDDFIFQISKDEYLDILFEELELPNLEKNQVQKITEWETHRAGYQTAGVPSNIDIVRSLQQSLARRTAMTAGKKRLLSELEQELETIKNSEPSQPLAVRKMQEQIEELRERIKHVPYIDSFDLRYKNYERTPIPSSQAVMFCLMDVSGSMDQATKDIAKRFYVLLYLFLTRTYENVEVVFIRHHTQAKEVNEHDFFYSQETGGTMVSSALKLMRDIVAERFPANEWNIYAAQASDGDNWADDSPKCKELLTSSILPTCQYYSYIEITKRHHQTLWTEYDKLAQGFDNFAMKNIRSVEDIYPIFRELFQKQLALEHHHHHH”, the “soluble on expression in E. coli” value is reported as “not soluble”.
Under “MAQFIDRRLNGKNKSAVNRQRFLKRHKEQIKESVADAVNRRSITNTETGEDVSIPHKDINEPIFHQGKGGVRERVHPGNDQFITGDKIERPKGGGQGSGSGEGNASPDGEGQDEFVFQISKDEYLDILFEDLELPNLEKNQIAKITEWKTHRAGFQTAGIPSNISVIRSLQQSLARRTAMTAGKKRLLKELEDELTRIKNIEPAQQLEENRLKKEIEELRKKIENVPFIDTFDLRFKNYEKRPVPSSQAVMFCLMDVSGSMDQATKDIAKRFYVLLYLFLTRTYENVDVVFIRHHTQAKEVDEHEFFYSQETGGTIVSSALKLMDEIVKERYPVGQWNIYAAQASDGDNWADDSPRCRDLLVNKLLPNCQYYSYIEITRRSHQTLWHEYEKLTDEFPNFAMKNIRSVEDIFPVFRELFQKETALEHHHHHH” stands “soluble”; under “MAQIVVIGAGLGGLPAAYELRHYLGKAHQVILISEFPQFTFVPGLVQVGLGHIPLDHMQLNVPMLAKRHGFKWVQGKVQKIDPLQKRIYTHETLNYDYLIIASGAELANDLVPGLGIYTHSICTPSHVLEARTAWETFCQQPGDLVVGAAPGTGCFGPAYEYVLLAEADLRRRGIRDQVKITYITPEPYIGHLGIANMAHSQTLTEALMNKRGIATLTNAQIVNISSDHIFLADGQSFGFAYSMILPAFRGAKFVKASGLGNERGFLPVLPTMRHRDYPEIYGVGVSVHLGQINDTQVSIGTPKSGQMTEAMAMVAAHNIAVELGSIAKPLQVPTLEALCFAEYGDTGIAYIAAPVLPDRLTGKRRYSYAIKGIWVNWAKAAFEKYFLAKMRLGVGLPWFEKLGLRLLFGLSMSRPAMAEDIVQPVNVLEHHHHHH”, “soluble”.
As to “MAQPPDGRLTYMTQHQRVMEWLNSIDRPNGIHFLDMDAKSLLVLMNTLDRKTRSNLEKSCKILLSISRSDKPHLQQLCLHFTTTWNHDQFAEITAQFSPEHSFHSIFMSKKKSPNWITGGWSIDRQKNITSGIFQPEKLRLSATFVERTSRYIEYWLRNFQIDTLRIKVENLIPGKENSIQQSNYTGEIPPLKLKKLIIHGANNIRFINNWLDNLVPNAIDPLDDKKKIIDVEFLDVGKLDQIFHHSLMTTGKVNLTFNRVSTHFTRKTLNFVNSPMINIVARQVPSEAVNSFLKRWCRGEIIEDFQYLHLMETTQWPSQQMHMMDALSGLRYQIVDLKTDVKLRILEKQKEFPKPAQIFQITGPRPGFCAHFGNQFIFEIPKTEDIQHILVNPPISQNTFDEYERQKNRIYMELFRKRLIRLFN”, the “soluble on expression in E. coli” value is reported as “not soluble”.
As for “MAQPSTTYKFELNLTDLDRNVYESVKQTIARHPSETEERMAVRLLAYALWYNENLSFGRGLSDVDEPALWEKSLDDRVLHWIEVGQPDADRLTWCSRRTERTSLLAYGSLRVWEGKVVSAVKNLKNLSIAAVPQEVLETLATDMPRSIKWDVMISEGTVFVTDDRGQHEVQLQWLLGERG”, the “soluble on expression in E. coli” value is reported as “not soluble”.
For “MAQRFTDEVAIVTGSSNGIGRATAILLASEGAKVTITGRNAERLEESRQALLKVGVPSGHINSVVADVTTGAGQDVLIDSTLKKFGKINILINNAGALIVDPEGKTNTSTGVETCLKTFQLNFQSVVEMTQKIRPHLANTHGEIVNVSSVGAGPAAENRFPYYSAAKAALDQYSRNTAIDLIPDGIRVNIVQPGFVATGFTTAASGMSPDASAKMYEGIGANTSCIPAGYCGRPEHLASVIAFLADRKASEYIVGQTIIADGGTTLVRGRNVALATRRAE” the value was “not soluble”; for “MAQRRESLNMGEFAEEAIIVEEVAAPKRVNHFIEANTQEVTLQHLQQDCIIPSFASMEETISHQSFIGAVVDAAKDYFHGEQFDMPEIRISHPINGRIPSALGKKASELTDEEKTLFYQRMCFCFEIPSIVHDEYGNRLALSIGGVRAYNEINLYSKKSVERFKIFIGFRNRVCSNLMLTTDGLQDKIEVLSIQELYAAALNLFHAYNPSKDLHLLRTLGQMSISTSEFCQIIGRMRLYQALTPNQQKRLPRLLLGDSQINAACRAFVSDANFKSTGDSITGWQLLNLLNGSVKSSYIDNFLERNLNCTEFVQGIQRAKLGDSEYAWFLG”, “not soluble”.
Under “MAQSEISKREKGRALITVANNVAGFNLWKRLVEEGYDVDAILPSEDKYNLLLSELVSRKNKKYDFIVNTVDRHDYAVVTNKMLKWLYPTEKIIFISSDLVYEPRPGKKKENDNAYPPTMEGKYFLEAESALDVNSDLVLRVGLVTGRCVPNILTNTINLSRANMSIDLSGAVVRNFISNADLSEYIIRLLDKNGIYNASAKSMTPRDFALELCAKINVNCKLRRTTDDKVFDYSMDTTKIELTTGYYTKDIFANISSGLYLLG” stands “soluble”; under “MAQTERRDAPELPDFSLLKRLARDQLIFLLEQLPGKKDLFIDADLMSPLDRIANVTILKQHEVDKLYKVELKPIVSSSDQLCFLIRPRIQTVKWISDLVNSDKVAGRFRRYKIIFTPQKFYACETVLEEQGVYGDVTTDEWNFYILPLDDDILSLELPEFFRDNFLEGDQRWVTTGGGALHLLQSVYGSFSKVYGIGRCAKMVYESWRELMEEGEQRTRQPEFAKVFLIDRDVDFVTPLCSQVVYEGLVDDIFRIKCSSVEFGPDVTSSDKSIKVMLNSQDKVFNEIRNEHFSNVFGFLSQKAKNLQTAYDKRRGMDIQQMKAFVADELKGLKQEHRLLSLHIGASESIMKKKTKQDFQELLKTEHSLLEGFEIRECIAYIEEHINRQVSMIDSLRLLCLLSITENGLLSKDYRSLKAQYLQSYGIEHLLTFANLRQLGLLEEQQTGETLTVMESKVGKLVNDKTAGKLTDAFSSLAKKSNFRALSKRLALVPKSGEEYDLRVPRDMAYIFSGAYIPLSCKLIEQVLERDGWTGLEEVTRMLNGQDFAVTGGSSSSEARNKSNGQRIILVMFLGGCTYSEISALRFLGKERGCRFIVLTTAITNSGRLLEALLDKHV”, “soluble”.
